Broadly, the pKd is the Kd on a negative log10 scale, so that one unit is a factor of ten. The low end stands for a high Kd, the high end for a low Kd.

Experimental findings from the Immune Epitope Database (IEDB) are described below.

pKd: −log10 of the molar value.

The target in experiment [1] is HLA-A*01:01. The experiment is described as follows: IEDB peptide-MHC binding, purified MHC/direct/fluorescence; filed as Kd, often an IC50 or EC50 that approximates it; ≥ and ≤ were set here for values at or beyond the usual limits of such assays.
Experiment [2] deals with HLA-A*02:01. Described as above.
Experiment [3] deals with HLA-A*03:01. The description is as above.
In the next experiment the target is HLA-A*11:01. Described as above.
In the next experiment the target is HLA-A*24:02. Described as above.
Experiment [4] concerns the target HLA-A*26:01. The description is as above. Particulars: source organism: Rickettsia felis URRWXCal2.
In the next experiment the target is HLA-A*31:01. The experiment is described as above. Particulars: source organism: Rickettsia australis.
For experiment [5], the target named is HLA-A*69:01. The experiment is described as above. Particulars: source organism: Rickettsia australis.
In another experiment the target is HLA-B*07:02. Described as above.
In another experiment the target is HLA-B*08:01. The experiment is described as above. To be noted: source organism: Rickettsia felis URRWXCal2.
Experiment [6] deals with HLA-B*15:01. Described as above.
In experiment [7] the target is HLA-B*18:01. The description is as above.
The target of a further experiment is HLA-B*27:05. Described as above.
Another experiment has as its target HLA-B*40:01. The description is as above.
The target of a further experiment is HLA-B*44:02. The experiment is described as above.
In experiment [8] the target is HLA-B*46:01. The experiment is described as above.
The target of experiment [9] is HLA-B*58:01. The description is as above.
In another experiment the target is HLA-C*12:03. Described as above. Particulars: source organism: Escherichia coli B171.
In experiment [10] the target is HLA-A*01:01. The experiment is described as follows: IEDB peptide-MHC binding, purified MHC/competitive/fluorescence; filed as Kd, often an IC50 or EC50 that approximates it; ≥ and ≤ were set here for values at or beyond the usual limits of such assays.
The target in experiment [11] is HLA-B*58:01. The experiment is described as above.
Experiment [12] concerns the target HLA-A*02:01. Described as above.
Another experiment concerns the target HLA-A*02:06. Described as above. To be noted: source organism: Yersinia pestis Nepal516.
For another experiment, the target named is HLA-A*02:03. The experiment can be described thus: IEDB peptide-MHC binding, purified MHC/direct/fluorescence; filed as Kd, often an IC50 or EC50 that approximates it; ≥ and ≤ were set here for values at or beyond the usual limits of such assays. To be noted: source organism: Bacillus anthracis str. Sterne.
In a further experiment the target is HLA-A*02:11. Described as above. Particulars: source organism: Bacillus anthracis str. Sterne.
The target of a further experiment is HLA-A*02:12. The description is as above. Particulars: source organism: Bacillus anthracis str. Sterne.
A further experiment concerns the target HLA-A*02:16. Described as above. Particulars: source organism: Bacillus anthracis str. Sterne.
The next experiment has as its target HLA-A*02:19. The description is as above. To be noted: source organism: Bacillus anthracis str. Sterne.
The next experiment deals with HLA-A*23:01. Described as above. To be noted: source organism: Bacillus anthracis str. Sterne.
In the next experiment the target is HLA-A*24:03. The experiment is described as above. Particulars: source organism: Bacillus anthracis str. Sterne.
Another experiment addresses HLA-A*29:02. The experiment is described as above. Particulars: source organism: Bacillus anthracis str. Sterne.
The next experiment concerns the target HLA-A*68:02. The description is as above. Particulars: source organism: Bacillus anthracis str. Sterne.
Experiment [13] addresses HLA-A*26:01. The experiment can be described thus: IEDB peptide-MHC binding, purified MHC/competitive/fluorescence; filed as Kd, often an IC50 or EC50 that approximates it; ≥ and ≤ were set here for values at or beyond the usual limits of such assays. Particulars: source organism: Bacillus anthracis str. A2012.
The target in experiment [14] is HLA-A*69:01. The description is as above. To be noted: source organism: Bacillus anthracis str. A2012.
The target of a further experiment is HLA-B*15:17. The experiment is described as above. To be noted: source organism: Bacillus anthracis str. A2012.
Experiment [15] deals with HLA-B*18:01. Described as above. To be noted: source organism: Bacillus anthracis str. A2012.
The target in another experiment is HLA-B*39:01. Described as above. Particulars: source organism: Bacillus anthracis str. A2012.
Experiment [16] addresses HLA-B*46:01. The experiment is described as above. To be noted: source organism: Bacillus anthracis str. A2012.
For the next experiment, the target named is HLA-B*51:01. Described as above. To be noted: source organism: Bacillus anthracis str. A2012.
In another experiment the target is HLA-B*57:01. The experiment is described as above. To be noted: source organism: Bacillus anthracis str. A2012.
The target in experiment [17] is HLA-B*15:01. Described as above.
Experiment [18] concerns the target HLA-A*03:01. Described as above. To be noted: source organism: Salmonella enterica subsp. enterica serovar Typhi.
Setting [19] is: source organism: Rickettsia australis.
Setting [20] is: source organism: Escherichia coli.
The mark [21] stands for this setting: source organism: Salmonella enterica subsp. enterica serovar Paratyphi B str. SPB7.
The mark [22] stands for this setting: source organism: Salmonella enterica subsp. enterica serovar Typhi.
[23] abbreviates: source organism: Giardia lamblia ATCC 50803.

With ATYGTAVNK, the pKd in the experiment with HLA-A*01:01 [1] (setting [19]) is no more than 4.70; with HLA-A*02:01 [2] (setting [19]) it was no more than 4.70; in the experiment with HLA-A*03:01 [3] (setting [19]) it was 7.08; in the experiment with HLA-A*11:01 (setting [19]), 7.53; with HLA-A*24:02 (setting [19]) it was no more than 4.70; in the experiment with HLA-A*26:01 [4] it was no more than 4.70. Further, the negative-log Kd (pKd) in the experiment with HLA-A*31:01 was 7.43; with HLA-A*69:01 [5], no more than 4.70; with HLA-B*07:02 (setting [19]), no more than 4.70; with HLA-B*08:01, no more than 4.70; in the experiment with HLA-B*15:01 [6] (setting [19]) it was no more than 4.70; with HLA-B*18:01 [7] (setting [19]) it was no more than 4.70. Further, the pKd with HLA-B*27:05 (setting [19]), in the experiment with HLA-B*40:01 (setting [19]), with HLA-B*44:02 (setting [19]), with HLA-B*46:01 [8] (setting [19]) and with HLA-B*58:01 [9] (setting [19]) was no more than 4.70 each time.
Regarding YSALRPHEY, the pKd was 8.05 with HLA-C*12:03, 7.92 with HLA-A*01:01 [10] (setting [20]) and 5.86 in the experiment with HLA-B*58:01 [11] (setting [20]).
IFQKISFFW showed a negative-log Kd (pKd) with HLA-A*24:02 (source organism: Cryptosporidium parvum Iowa II) of 7.77.
Take RQPLNIQAI: the pKd is 6.52 with HLA-A*02:01 [12] (source organism: Yersinia pestis Nepal516) and 7.23 in the experiment with HLA-A*02:06.
With KKNHWFILK, the negative-log Kd (pKd) is no more than 4.70 with HLA-A*02:03; no more than 4.70 with HLA-A*02:11; no more than 4.70 with HLA-A*02:12; no more than 4.70 with HLA-A*02:16; no more than 4.70 in the experiment with HLA-A*02:19; 6.60 with HLA-A*11:01 (source organism: Bacillus anthracis str. Sterne). Besides, the pKd with HLA-A*23:01, with HLA-A*24:03, with HLA-A*29:02, with HLA-A*68:02, with HLA-A*02:01 [12] (source organism: Bacillus anthracis str. A2012) and in the experiment with HLA-A*26:01 [13] was no more than 4.70 each time. Further, the pKd with HLA-A*69:01 [14], with HLA-B*15:17, with HLA-B*18:01 [15], with HLA-B*39:01, with HLA-B*46:01 [16] and with HLA-B*51:01 was no more than 4.70 in each case. For the same sequence, in the experiment with HLA-B*57:01, the negative-log Kd (pKd) is no more than 4.70.
FSDLLSMAW: the negative-log Kd (pKd) was 8.85 in the experiment with HLA-A*01:01 [10] (setting [21]), no more than 4.70 with HLA-B*15:01 [17] (setting [21]) and 8.62 with HLA-B*58:01 [11] (setting [21]).
ASIADILTY: the negative-log Kd (pKd) with HLA-A*01:01 [10] (setting [22]) was 6.12; with HLA-A*03:01 [18], no more than 4.70; with HLA-B*15:01 [17] (setting [22]) it was 6.37; with HLA-B*58:01 [11] (setting [22]), 7.68.
With WLKEKHEEL, the pKd is no more than 4.70 in the experiment with HLA-A*01:01 [1] (setting [23]); 6.52 with HLA-A*02:01 [2] (setting [23]); no more than 4.70 with HLA-A*03:01 [3] (setting [23]); no more than 4.70 with HLA-A*11:01 (setting [23]); no more than 4.70 with HLA-A*24:02 (setting [23]); no more than 4.70 with HLA-B*07:02 (setting [23]). For the same sequence, the negative logarithm of the Kd (pKd) with HLA-B*15:01 [6] (setting [23]) was 6.30; with HLA-B*18:01 [7] (setting [23]), no more than 4.70; in the experiment with HLA-B*27:05 (setting [23]), no more than 4.70; with HLA-B*40:01 (setting [23]) it was no more than 4.70; with HLA-B*44:02 (setting [23]), no more than 4.70; with HLA-B*46:01 [8] (setting [23]), no more than 4.70. For the same sequence, the negative logarithm of the Kd (pKd) with HLA-B*58:01 [9] (setting [23]) is no more than 4.70.
